Numbering of substitutions follows the chain as printed. Numbers in names are those of the source. One block for each molecule: values may come before it.
Legend:
14-3-3ζ [1] = biological target: 14-3-3ζ (UniProt P63104); assay: AUC sedimentation velocity, 36.5 μM; conditions: sites S58
14-3-3ζ [2] = biological target: 14-3-3ζ (UniProt P63104); assay: SEC-RALS, 36.5 μM; conditions: sites S58
14-3-3ζ L12E_M78K = 14-3-3ζ L12E_M78K (UniProt P63104); assay: SEC-RALS; 5 mg/mL (183 μM) pζ and ζm in PBS pH 7.4, 20°C, triplicates; KD of dimerisation estimated from the protein percentage in the dimeric and monomeric peaks; dimer to monomers
14-3-3ζ WT [3] = biological target: 14-3-3ζ WT (UniProt P63104); assay: SEC-RALS; size-exclusion chromatography with right-angle light scattering, 1 mg/mL (36.5 μM) protein in PBS pH 7.4, Zenix SEC 300 column, 20°C; dimer to monomers
14-3-3ζ WT [4] = biological target: 14-3-3ζ WT (UniProt P63104); assay: AUC; sedimentation velocity, 1 mg/mL (36.5 μM) protein in 50 mM Tris-HCl, 300 mM NaCl, 3 mM NaN3, pH 8, 20°C, 50,000 RPM, c(s) distribution; dimer to monomers
[5] = biological target: 14-3-3ζ phosphorylated at Ser58 (UniProt P63104); assay: SEC-RALS; 5 mg/mL (183 μM) pζ and ζm in PBS pH 7.4, 20°C, triplicates; KD of dimerisation estimated from the protein percentage in the dimeric and monomeric peaks; dimer to monomers
[6] = biological target: the molecule itself; assay: FRET or BRET; kinetic FRET assay in a cuvette: 200 nM AF647-labelled plus 200 nM AF488-labelled ζ_S58E_Ntail, then 100-fold excess of non-labelled ζ_S58E; 20 mM sodium phosphate pH 6.8, 15°C; profile fitted for KD and koff; dimer to monomers
FRET; 15°C = biological target: the molecule itself; assay: FRET; 15°C
[7] = biological target: the molecule itself; assay: SEC-RALS; 4.5 mg/mL (164 μM) ζ_S58D and ζ_S57D_S58D in PBS pH 7.4, 20°C, triplicates; KD of dimerisation calculated from the observed MW as weighted average of dimer and monomer; dimer to monomers
[8] = biological target: the molecule itself; assay: AUC; sedimentation velocity, 1 mg/mL (36.5 μM) protein in 50 mM Tris-HCl, 300 mM NaCl, 3 mM NaN3, pH 8, 20°C, 50,000 RPM, c(s) distribution; dimer to monomers
[9] = reference: non-phosphorylated ζ

Molecule: 14-3-3ζ (from UniProt P63104) ζ_S58E
- other: apparent MW (14-3-3ζ [1]; reference: ζ wild type): same; reference 56.4
- other: apparent MW (14-3-3ζ [2]; reference: ζ wild type): weaker; reference 54.5

B1: ζ_S58E_Ntail, fluorescently labelled (natural protein)
chain: SVDACKGSSGGMDKNELVQKAKLAEQAERYDDMAAAMKSVTEQGAELSNEERNLLSVAYKNVVGARRSEWRVVSSIEQKTEGAEKKQQMAREYREKIETELRDICNDVLSLLEKFLIPNASQAESKVFYLKMKGDYYRYLAEVAAGDDKKGIVDQSQQAYQEAFEISKKEMQPTHPIRLGLALNFSVFYYEILNSPEKAASLAKTAFDEAIAELDTLSEESYKDSTLIMQLLRDNLTLWTSDTQGDEAEAGEGGEN
modifications: Cys5 (of the added N-terminal tail) labelled with AlexaFluor647-C5-maleimide (AF647) in one preparation and AlexaFluor488-C2-maleimide (AF488) in the other
- Kd [6]: 0.35 ± 0.25 µM
- koff (FRET; 15°C): 0.731 s⁻¹

B2: 14-3-3ζ S58D (natural protein, UniProt P63104 1-245, looked up)
chain: MDKNELVQKAKLAEQAERYDDMAAAMKSVTEQGAELSNEERNLLSVAYKNVVGARRSDWRVVSSIEQKTEGAEKKQQMAREYREKIETELRDICNDVLSLLEKFLIPNASQAESKVFYLKMKGDYYRYLAEVAAGDDKKGIVDQSQQAYQEAFEISKKEMQPTHPIRLGLALNFSVFYYEILNSPEKAASLAKTAFDEAIAELDTLSEESYKDSTLIMQLLRDNLTLWTSDTQGDEAEAGEGGEN
notes: 14-3-3ζ protein with C25A C189A and the phosphomimicking mutation S58D; source: E. coli BL21(DE3) CodonPlus RIL, purified (protocol of Hritz et al., 2014)
- Kd [7]: 132 ± 7 µM

B3: 14-3-3ζ S58E (natural protein, UniProt P63104 1-245, looked up)
chain: B2 chain with D58E
notes: 14-3-3ζ protein with C25A C189A and the phosphomimicking mutation S58E; source: E. coli BL21(DE3) CodonPlus RIL, purified (protocol of Hritz et al., 2014)
- stoichiometry N [8]: 2

B4: 14-3-3ζ S57D_S58D (natural protein, UniProt P63104 1-245, looked up)
chain: B2 chain with S57D
notes: also called double phosphomimicking mutant; source: E. coli BL21(DE3) CodonPlus RIL, purified (protocol of Hritz et al., 2014)
- Kd [7]: 348 ± 19 µM

Results, then the molecule that gave them:

- other: apparent MW (14-3-3ζ [1]; [9]): weaker; reference 56.4
- other: apparent MW (14-3-3ζ [2]; [9]): weaker; reference 54.5
Molecule: 14-3-3ζ (from UniProt P63104) pζ (PKA co-expressed, purified pS58 form)

- other: apparent MW (14-3-3ζ [1]; reference: ζ wild type): weaker; reference 56.4
- other: apparent MW (14-3-3ζ [2]; reference: ζ wild type): weaker; reference 54.5
Molecule: 14-3-3ζ (from UniProt P63104) ζ_S57D_S58D

- other: apparent MW (14-3-3ζ [1]; reference: ζ wild type): weaker; reference 56.4
- other: apparent MW (14-3-3ζ [2]; reference: ζ wild type): weaker; reference 54.5
Molecule: 14-3-3ζ (from UniProt P63104) ζ_S58D

- Kd (14-3-3ζ L12E_M78K): 4600 µM
Molecule: 14-3-3ζ L12E_M78K (from UniProt P63104 1-245) (natural protein)

- stoichiometry N (14-3-3ζ WT [3]): 2
- stoichiometry N (14-3-3ζ WT [4]): 2
Molecule: 14-3-3ζ WT (from UniProt P63104 1-245) (natural protein)

- Kd [5]: 7600 µM
Molecule: 14-3-3ζ phosphorylated at Ser58 (from UniProt P63104 1-245) (natural protein)
